The supplement of paper PMC6379048

Tests used:
Test in all cases: Kd (EC50 corrected by depletion factor)
ZC3HAV1 = ZC3HAV1 (UniProt Q7Z2W4)
Procedure: (§1)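 Competition-binding assay: HEK293-FT cell lysate (2.5 mg protein) pre-incubated 1 h at 4°C with free motif-containing RNA oligos (0 to 30 µM, 12 doses), then pulled down with the same 5'-amino-C6 RNA oligos immobilised on NHS-Sepharose beads (30 min, 4°C). Bound proteins were quantified by label-free LC-MS/MS and normalised to the water control. EC50 came from a four-parameter log-logistic fit; Kd = EC50 x depletion factor. Random/reversed control probes are dropped.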

SKIV2L2 = molecular target: T1, SKIV2L2 (UniProt P42285)
T1 sequence: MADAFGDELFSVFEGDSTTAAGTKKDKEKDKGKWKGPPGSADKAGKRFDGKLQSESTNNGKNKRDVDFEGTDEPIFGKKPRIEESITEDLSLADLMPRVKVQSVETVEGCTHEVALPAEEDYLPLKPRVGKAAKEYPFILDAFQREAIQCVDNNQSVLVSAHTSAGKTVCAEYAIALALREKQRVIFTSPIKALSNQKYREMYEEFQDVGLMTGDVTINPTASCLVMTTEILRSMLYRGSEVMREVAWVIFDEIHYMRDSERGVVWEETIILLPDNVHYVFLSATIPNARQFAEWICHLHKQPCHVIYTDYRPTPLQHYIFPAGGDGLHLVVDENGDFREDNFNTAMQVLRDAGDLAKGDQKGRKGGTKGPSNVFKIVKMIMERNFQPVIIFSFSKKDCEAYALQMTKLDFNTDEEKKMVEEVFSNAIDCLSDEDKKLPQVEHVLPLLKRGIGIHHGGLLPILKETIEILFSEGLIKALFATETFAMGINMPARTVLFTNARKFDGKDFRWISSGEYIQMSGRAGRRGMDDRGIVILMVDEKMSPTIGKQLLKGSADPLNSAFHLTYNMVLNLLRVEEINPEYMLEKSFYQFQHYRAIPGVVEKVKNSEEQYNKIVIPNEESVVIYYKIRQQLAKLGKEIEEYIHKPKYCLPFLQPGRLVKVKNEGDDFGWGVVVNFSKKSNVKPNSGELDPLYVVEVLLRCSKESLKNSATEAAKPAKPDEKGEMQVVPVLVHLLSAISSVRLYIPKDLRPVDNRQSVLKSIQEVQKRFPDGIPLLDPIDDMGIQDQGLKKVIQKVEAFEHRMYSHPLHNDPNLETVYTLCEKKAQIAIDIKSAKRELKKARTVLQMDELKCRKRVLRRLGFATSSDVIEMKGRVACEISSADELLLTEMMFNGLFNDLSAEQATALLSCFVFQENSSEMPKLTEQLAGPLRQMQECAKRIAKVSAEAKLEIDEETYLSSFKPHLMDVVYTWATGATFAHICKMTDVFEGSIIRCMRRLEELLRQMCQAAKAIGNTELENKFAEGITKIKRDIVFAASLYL
Procedure: as §1

XRN2 = molecular target: T2, XRN2 (UniProt Q9H0D6)
T2 sequence: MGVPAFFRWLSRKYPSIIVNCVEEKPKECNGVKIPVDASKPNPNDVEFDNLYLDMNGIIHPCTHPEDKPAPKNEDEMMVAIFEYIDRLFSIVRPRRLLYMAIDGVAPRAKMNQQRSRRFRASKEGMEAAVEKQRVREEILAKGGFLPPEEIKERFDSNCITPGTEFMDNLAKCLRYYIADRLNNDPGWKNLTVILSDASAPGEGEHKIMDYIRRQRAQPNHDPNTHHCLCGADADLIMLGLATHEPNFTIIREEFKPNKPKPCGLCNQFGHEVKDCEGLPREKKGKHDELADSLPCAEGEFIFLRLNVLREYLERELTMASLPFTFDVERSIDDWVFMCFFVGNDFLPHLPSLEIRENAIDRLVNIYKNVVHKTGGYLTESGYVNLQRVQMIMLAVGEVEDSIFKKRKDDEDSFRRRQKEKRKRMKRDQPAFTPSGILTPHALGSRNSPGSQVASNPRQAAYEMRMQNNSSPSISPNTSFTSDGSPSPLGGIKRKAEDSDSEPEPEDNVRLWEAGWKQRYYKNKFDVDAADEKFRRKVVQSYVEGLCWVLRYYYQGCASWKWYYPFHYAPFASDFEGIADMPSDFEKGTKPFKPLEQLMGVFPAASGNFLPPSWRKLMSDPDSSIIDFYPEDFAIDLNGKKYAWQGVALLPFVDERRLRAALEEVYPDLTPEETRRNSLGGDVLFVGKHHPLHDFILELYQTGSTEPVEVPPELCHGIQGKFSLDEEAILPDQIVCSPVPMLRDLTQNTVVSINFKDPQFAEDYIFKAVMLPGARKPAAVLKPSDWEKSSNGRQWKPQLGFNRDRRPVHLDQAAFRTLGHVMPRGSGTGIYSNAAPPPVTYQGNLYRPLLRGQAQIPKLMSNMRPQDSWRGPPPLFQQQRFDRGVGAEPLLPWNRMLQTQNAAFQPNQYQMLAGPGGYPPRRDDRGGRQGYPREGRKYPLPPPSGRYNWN
Procedure: as §1

DHX9 = DHX9 (UniProt Q08211)
Procedure: as §1

CELF2 = molecular target: T3, CELF2 (UniProt O95319)
T3 sequence: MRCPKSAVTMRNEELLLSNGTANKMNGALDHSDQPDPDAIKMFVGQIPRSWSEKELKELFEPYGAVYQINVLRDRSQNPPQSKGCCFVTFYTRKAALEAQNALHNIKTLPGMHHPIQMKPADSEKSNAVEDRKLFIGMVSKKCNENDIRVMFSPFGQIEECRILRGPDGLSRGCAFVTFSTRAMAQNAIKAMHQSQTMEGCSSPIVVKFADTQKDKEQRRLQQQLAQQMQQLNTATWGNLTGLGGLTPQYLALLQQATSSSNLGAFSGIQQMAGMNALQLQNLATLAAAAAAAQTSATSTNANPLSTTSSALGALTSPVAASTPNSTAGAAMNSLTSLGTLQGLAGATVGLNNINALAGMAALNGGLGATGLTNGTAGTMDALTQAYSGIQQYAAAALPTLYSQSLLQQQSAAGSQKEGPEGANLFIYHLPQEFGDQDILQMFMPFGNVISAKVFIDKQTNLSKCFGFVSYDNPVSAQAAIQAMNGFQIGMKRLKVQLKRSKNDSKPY
Procedure: as §1

Chain of DHX9 (Q08211 whole entry): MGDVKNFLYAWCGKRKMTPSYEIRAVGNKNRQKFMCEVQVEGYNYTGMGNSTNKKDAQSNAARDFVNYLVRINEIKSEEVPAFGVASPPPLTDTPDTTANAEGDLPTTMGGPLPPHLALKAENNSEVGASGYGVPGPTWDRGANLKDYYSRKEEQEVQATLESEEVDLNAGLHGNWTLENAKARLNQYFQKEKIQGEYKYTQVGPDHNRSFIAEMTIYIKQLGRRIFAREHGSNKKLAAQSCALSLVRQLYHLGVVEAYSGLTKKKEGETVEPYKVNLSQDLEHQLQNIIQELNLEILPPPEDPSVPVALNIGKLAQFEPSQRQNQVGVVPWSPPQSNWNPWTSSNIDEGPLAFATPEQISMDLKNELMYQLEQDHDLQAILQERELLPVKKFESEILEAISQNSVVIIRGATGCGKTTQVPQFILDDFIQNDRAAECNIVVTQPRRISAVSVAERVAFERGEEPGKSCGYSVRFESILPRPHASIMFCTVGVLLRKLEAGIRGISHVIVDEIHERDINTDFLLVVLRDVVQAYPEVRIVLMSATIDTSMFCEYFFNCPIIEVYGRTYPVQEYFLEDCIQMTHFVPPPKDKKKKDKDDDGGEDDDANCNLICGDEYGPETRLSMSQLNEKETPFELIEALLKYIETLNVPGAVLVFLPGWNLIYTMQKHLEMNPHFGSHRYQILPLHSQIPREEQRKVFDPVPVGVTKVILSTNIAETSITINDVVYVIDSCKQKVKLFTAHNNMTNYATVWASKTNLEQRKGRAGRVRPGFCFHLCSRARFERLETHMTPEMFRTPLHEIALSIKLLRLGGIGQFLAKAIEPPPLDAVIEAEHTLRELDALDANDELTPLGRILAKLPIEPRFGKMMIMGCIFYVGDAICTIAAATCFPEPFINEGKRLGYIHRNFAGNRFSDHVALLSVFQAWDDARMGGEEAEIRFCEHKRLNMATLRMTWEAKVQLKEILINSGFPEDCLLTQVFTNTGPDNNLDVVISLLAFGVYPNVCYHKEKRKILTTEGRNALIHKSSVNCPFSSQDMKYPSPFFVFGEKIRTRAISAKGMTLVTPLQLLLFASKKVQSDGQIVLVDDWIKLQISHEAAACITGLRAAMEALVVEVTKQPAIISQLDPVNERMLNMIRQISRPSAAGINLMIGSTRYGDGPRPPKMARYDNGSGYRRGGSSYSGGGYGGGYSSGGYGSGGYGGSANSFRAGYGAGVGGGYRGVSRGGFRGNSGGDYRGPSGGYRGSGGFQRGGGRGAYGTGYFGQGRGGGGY
Chain of ZC3HAV1 (Q7Z2W4 whole entry): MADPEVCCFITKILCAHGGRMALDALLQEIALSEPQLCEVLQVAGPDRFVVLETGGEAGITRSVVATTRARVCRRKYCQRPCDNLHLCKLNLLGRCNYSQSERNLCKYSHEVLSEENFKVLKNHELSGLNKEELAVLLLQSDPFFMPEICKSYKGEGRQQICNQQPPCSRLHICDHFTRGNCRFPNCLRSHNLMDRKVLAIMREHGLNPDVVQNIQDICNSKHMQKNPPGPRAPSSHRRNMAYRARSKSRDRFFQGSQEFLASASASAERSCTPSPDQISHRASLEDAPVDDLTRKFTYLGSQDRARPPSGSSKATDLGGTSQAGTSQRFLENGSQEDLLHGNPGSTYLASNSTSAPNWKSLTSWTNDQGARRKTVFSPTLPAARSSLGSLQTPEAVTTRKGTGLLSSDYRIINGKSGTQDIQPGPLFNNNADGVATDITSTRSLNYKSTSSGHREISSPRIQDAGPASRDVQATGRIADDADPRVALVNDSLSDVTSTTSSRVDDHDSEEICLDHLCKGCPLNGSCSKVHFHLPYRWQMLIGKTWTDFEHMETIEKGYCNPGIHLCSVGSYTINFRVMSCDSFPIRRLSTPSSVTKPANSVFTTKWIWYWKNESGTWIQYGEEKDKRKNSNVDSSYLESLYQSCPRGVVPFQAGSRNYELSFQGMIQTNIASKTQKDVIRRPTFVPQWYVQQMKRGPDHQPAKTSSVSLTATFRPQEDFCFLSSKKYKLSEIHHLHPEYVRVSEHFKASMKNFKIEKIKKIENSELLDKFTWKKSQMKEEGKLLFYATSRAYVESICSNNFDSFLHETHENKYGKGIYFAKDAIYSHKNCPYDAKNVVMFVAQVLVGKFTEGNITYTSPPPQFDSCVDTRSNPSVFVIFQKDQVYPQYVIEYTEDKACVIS

UAUUUAU
Kd (ZC3HAV1): 4310 nM
Kd (SKIV2L2): 202 nM
Kd (XRN2): 184 nM
Kd (DHX9): 1230 nM
Kd (CELF2): 283 nM

CUGUCCU
Kd (ZC3HAV1): 867 nM
Kd (SKIV2L2): 2450 nM
Kd (XRN2): 80.8 nM
Kd (DHX9): 155 nM
Kd (CELF2): 948 nM

AAUAAA
Kd (ZC3HAV1): 776 nM
Kd (SKIV2L2): 393 nM
Kd (XRN2): 354 nM
Kd (DHX9): 1840 nM
Kd (CELF2): 114 nM
